In publication PMC9769727, “Glucose-6-Phosphate Dehydrogenase, ZwfA, a Dual Cofactor-Specific Isozyme Is Predominantly Involved in the Glucose Metabolism of Pseudomonas bharatica CSV86^T” (Microbiology Spectrum, 2022):
Each block holds one molecule with its values, some of them ahead of it.

Key:
[1] = target: Glucose-6-phosphate dehydrogenase ZwfA from Pseudomonas bharatica CSV86T (Pseudomonas bharatica CSV86T); experiment: SEC; ENrich SEC 650 column (CV 24 mL, Bio-Rad) in Buffer A (Tris-Cl 50 mM, pH 7.5), 4°C; native molecular weight from a semilog plot of Ve/V0 against standard proteins, compared with the subunit weight by SDS-PAGE
[2] = target: Glucose-6-phosphate dehydrogenase ZwfC from Pseudomonas bharatica CSV86T (Pseudomonas bharatica CSV86T); experiment: SEC; Superdex 200 Increase 10/300 GL column (CV 24 mL, GE Healthcare) in Buffer A (Tris-Cl 50 mM, pH 7.5), 4°C; native molecular weight from a semilog plot of Ve/V0 against standard proteins, compared with the subunit weight by SDS-PAGE
purified protein [3] = substrate: NC(=O)c1ccc[n+]([C@@H]2O[C@H](COP(=O)(O)OP(=O)(O)OC[C@H]3O[C@@H](n4cnc5c(N)ncnc54)[C@H](O)[C@@H]3O)[C@@H](O)[C@H]2O)c1; experiment: purified protein; format: biochemical, Pseudomonas bharatica; conditions: 5 mM G6P fixed, Tris-Cl 50 mM, pH 8.25, hyperbolic
purified protein [4] = substrate: NC(=O)c1ccc[n+]([C@@H]2O[C@H](COP(=O)(O)OP(=O)(O)OC[C@H]3O[C@@H](n4cnc5c(N)ncnc54)[C@H](OP(=O)(O)O)[C@@H]3O)[C@@H](O)[C@H]2O)c1; experiment: purified protein; format: biochemical, Pseudomonas bharatica; conditions: 5 mM G6P fixed, Tris-Cl 50 mM, pH 8.25, hyperbolic

stoichiometry N [1]: 4
Molecule: Glucose-6-phosphate dehydrogenase ZwfA from Pseudomonas bharatica CSV86T (enzyme)

stoichiometry N [2]: 4
Molecule: Glucose-6-phosphate dehydrogenase ZwfC from Pseudomonas bharatica CSV86T (enzyme)

B1: ZwfA (Pseudomonas bharatica CSV86) (protein)
chain: MSSISVEPCTFALFGALGDLALRKLFPALYQLDRAGLLHERTRLLALAREPGSVQEHLASIEAHLHEFVASDTLDTTVLQRFLGRLNYLHMDFLDAQAYPALAAQVTPEAPLIAYFATPAAVYGGICENLAKVGLAERTRVVLEKPIGHDLESSRRVNDAVAQFFPENRIYRIDHYLGKETVQNLIALRFANSLFETQWNQTSISHVEISVAEKVGIEGRWGYFDKAGQLRDMIQNHLLQLLCLIAMDPPSDLSADSIRDEKVKVLKALAPITGEGLGTRVVRGQYIAGHSDGRALPGYLDEENANTHSDTETFVALRADIRNWRWAGVPFYLRTGKRMPQKLSQIVIHFKEPQHYIFAAEQRLQIGNKLIIRLQPDEGISLRVMTKEQGLDKGMQLRSSPLQLNFSDGSFRSARIPDAYERLLLEVMRGNQNLFVRKDEIEYAWKWCDQLIAGWKQSGEAPRPYAAGTWGPVAAVALITRDGRSWYGDI
notes: full length, 490 aa (1473 nt), pET28a N-terminal 6xHis tag, E. coli BL21(DE3), Ni-NTA; subunit ~56 kDa, homotetramer ~217 kDa; part of zwfA-pgl-eda operon; Arg49, Leu17
Km (purified protein [3]): 366 ± 70 µM | Vmax (purified protein [3]): 329 ± 74 µmol/min/mg | kcat (purified protein [3]): 306 ± 69 s⁻¹ | kcat/Km (purified protein [3]): 860000 ± 150000 M⁻¹ s⁻¹ | Km (purified protein [4]): 110.5 ± 20 µM | Vmax (purified protein [4]): 201 ± 28 µmol/min/mg | kcat (purified protein [4]): 187 ± 26 s⁻¹ | kcat/Km (purified protein [4]): 1.7e+06 ± 300000 M⁻¹ s⁻¹
